Data taken from patent publication US20260250325A1, “Antiviral Polypeptide Membrane Fusion Inhibitor, and Preparation Method and Application Thereof” (priority 2025, published 2026).
Where a SMILES comes first, the peptide text is derived from it. [ ]: non-standard residue; d: D form. The star is where a group is joined. ξ: configuration not given here. Succinyl(4-O-cholesteryl) = CC(C)CCC[C@@H](C)[C@H]1CC[C@H]2[C@@H]3CC=C4C[C@@H](OC(=O)CCC(=O)*)CC[C@]4(C)[C@H]3CC[C@]12C; ξD = NC(CC(=O)O)C(=O)O

T1: F protein of RSV A long virus strain (respiratory syncytial virus, RSV A long virus strain), P12568
T1 chain: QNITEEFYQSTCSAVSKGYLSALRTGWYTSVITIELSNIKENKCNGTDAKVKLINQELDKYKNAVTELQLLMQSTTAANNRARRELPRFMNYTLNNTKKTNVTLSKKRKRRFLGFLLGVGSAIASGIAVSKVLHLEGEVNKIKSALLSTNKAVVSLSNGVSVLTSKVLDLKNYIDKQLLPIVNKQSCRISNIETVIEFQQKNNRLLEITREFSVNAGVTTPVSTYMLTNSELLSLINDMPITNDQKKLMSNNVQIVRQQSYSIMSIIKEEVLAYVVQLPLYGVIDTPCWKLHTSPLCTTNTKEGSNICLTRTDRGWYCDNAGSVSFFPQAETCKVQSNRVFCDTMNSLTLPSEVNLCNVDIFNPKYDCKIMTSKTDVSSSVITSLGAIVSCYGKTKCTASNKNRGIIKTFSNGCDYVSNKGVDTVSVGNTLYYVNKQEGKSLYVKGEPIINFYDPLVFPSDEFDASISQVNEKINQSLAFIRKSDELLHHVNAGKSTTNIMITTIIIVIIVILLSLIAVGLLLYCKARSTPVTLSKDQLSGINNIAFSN

B1: Compound 30 (peptide)
peptide: YDELVFDASQVNEKINQSLEKIRKSDELLHNVEAAAKK
modifications: not checked
B2: Compound 43 (peptide)
peptide: WDEFDASIEEVNRRIEESLRRIEESDRRLEEVEAAAKK
modifications: not checked
B3: Compound 38 (peptide)
peptide: WDEFDASISQVNEKINQSLEEIRKSDELLHNVNALEAAAKK
modifications: not checked
B4: Compound 42 (peptide)
peptide: FDASIEEVNRRIEESLRRIEESDRRLEEVNAEAAAKK
modifications: not checked
B5: Compound 41 (peptide)
peptide: WDEFDKKIEEVNKKIEESLKKIEESDKKLEEVNEAAAKK
modifications: not checked
B6: Compound 40 (peptide)
peptide: WDEFDKKIEEVNKKIEESLKKIEESDKKLEEVNAEAAAKK
modifications: not checked

Assays:
[1] = Cytotoxicity test in HEp-2 cells (CCK8 cell viability); assay type: cell-based; conditions: human; HEp-2 cells, CCK8, 1 day; read-out: CC50
Summary of the method: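 Compound dilutions (final DMSO 0.5%) were applied for 1 day to HEp-2 cells plated at 30,000 per well the day before. CCK8 signal gave survival relative to cell and medium controls, and a four-parameter log(inhibitor)-response fit yielded CC50.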

RSV A2 virus strain [2] = assay: Mouse RSV A2 challenge protection, lung viral titer by plaque method; assay type: in vivo, BALB/c mice
Protocol: Female BALB/c mice were from Shanghai Yishang Biotechnology Co., Ltd. HEp- 2 were from the ATCC, with a catalog number CCL-23. The cells were cultured in a DMEM medium solution in which 10% (v/v) fetal bovine serum and 1% penicillin and streptomycin were added. The RSV A2 virus strain was from the ATCC, with a catalog number VR-1540.
Eight-week-old female BALB/c mice were grouped based on body weight (n=6). All animals were intranasally challenged with RSV on Day 0 at a challenge dosage of 1×10^6 pfu (20 μL) per animal. Administration began 1 h after Day 0 challenge; the polypeptide sample, positive control, and solvent control were administered via tracheal nebulization once daily for 5 consecutive days (see Table 3 below for administration dosage and administration frequency). Lung tissue was collected from all animals 2 h after the final administration on Day 4; left lung tissue was rapidly frozen in a virus protection solution with a 10-fold volume and stored below −70° C.; and a viral titer was detected by using a plaque method.
For analysis, the lung RSV A2 virus was determined by performing a tissue homogenate viral load plaque method. In short, on the day prior to sample detection, the HEp-2 cells were inoculated into a 12-well plate (spreading density being 0.3×10^6 cells/mL, with 1000 μL of cell suspension per well) according to a standard HEp-2 cell culture operation procedure. On the day of incubation, the supernatant was taken from the tissue sample that was homogenized using a tissue homogenizer (maintaining a low-temperature environment), and the supernatant was taken after centrifugation. The tissue homogenate sample was diluted with serum-free DMEM, and inoculated into a 12-well plate at a final volume of 400 μL. After 2 h of incubation, the homogenate supernatant was discarded, and 1.5 mL of a covering layer (cell culture medium containing 1% soft agar) was added to each well and cultured in the incubator for approximately 72 h. The covering layer was discarded, the cells were fixed, blocking was performed by using a blocking solution, dyeing was performed with HRP-RSVG, development and air drying were terminated with pure water. Colored spots on the well plate were counted by using a fluorescent (enzyme-linked) immunoassay spot analyzer, and the viral titer was expressed as a plaque-forming unit per gram of tissue (PFU/g). The viral titer was calculated as an arithmetic mean±standard error of all animals in a group.
(§1) One hour after RSV A2 challenge in mice, compounds 13, 14, 17, 19, 20, 21, 26, 27, 28, and 40 were administered via tracheal nebulization once daily for 5 consecutive days; and 2 h after the final administration, lung tissue was collected from all groups for viral plaque detection, and results were shown in Table 3.

RSV A2 virus strain [3] = assay: Cotton rat RSV A2 challenge protection, lung nucleic acid load by RT-qPCR; assay type: in vivo; conditions: cotton rats
Text: Female cotton rats were from Shanghai Yishang Biotechnology Co., Ltd. The RSV A2 virus strain was from the ATCC, with a catalog number VR-1540. RT-qPCR primer+probe primer were supplied by Qingke Biotechnology Co., Ltd, with batch number TSP20241227-025-00187. The RT-qPCR standard was provided by Vazyme, with batch number 20241008.
Female cotton rats (6-8 weeks old) were grouped based on body weight (n=5). All animals were intranasally challenged with RSV on Day 0 at a challenge dosage of […] pfu (50 μL) per animal. Administration began 1 h after Day 0 challenge; the polypeptide sample, positive control, and solvent control were administered via tracheal nebulization once daily for 5 consecutive days. Lung tissue was collected from all animals 2 h after the final administration on Day 4. Left lung tissue (including partial trachea) was rapidly frozen in a virus protection solution with a 10-fold volume and stored below −70° C.; and the viral titer was detected with RT-qPCR.
First, sample homogenization and lung tissue RNA extraction were performed, and the supernatant was taken from the tissue sample that was homogenized using a tissue homogenizer (maintaining a low-temperature environment). The approximately 100 μL of the homogenate supernatant was taken, and total tissue RNA was extracted by using a VeZol reagent-chloroform-water phase-magnetic bead method, and dissolved in RNase-free water. The RT-qPCR reaction system was prepared as follows: a one-step RT-qPCR reaction system was prepared by using an RNA template, a probe, a primer pair, an RT-qPCR buffer, and the RNase-free water; each sample was tested in duplicated wells, with each well containing 20 μL of the one-step RT-qPCR reaction system; a quantitative standard curve well (RSV A2 N gene full-length plasmid), a positive quality control well, and a negative quality control well were arranged at the same time. Then, amplification programs were set according to reverse transcription, pre-denaturation, and cyclic amplification, and amplification data was collected by using a real-time fluorescence quantification PCR instrument, and a mean CT value for duplicated wells was calculated. The CT value from the test results for each sample was substituted into a quantitative standard curve to calculate a copy number. A calculation formula for RSV viral load (copy number/gram of lung tissue) was: sample viral load (copy number/gram of lung tissue)=copy number/relative tissue input (g).
as §1, with “cotton rats,” for “mice,”, “titer” for “plaque”, “4.” for “3.”

[4] = biological target: hPIV-N51 (139-189) (human parainfluenza virus (hPIV))
Chain of hPIV-N51 (139-189) (human parainfluenza virus (hPIV)) (P06828 139-189): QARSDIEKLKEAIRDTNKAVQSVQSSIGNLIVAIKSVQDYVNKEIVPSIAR

[5] = biological target: T1, F protein of RSV A long virus strain …; assay: cell-based or functional assay
[6] = substrate: F protein of hMPV virus strain A2 (human metapneumovirus, strain A2); assay: cell-based or functional assay
[7] = substrate: F protein of hMPV virus strain B1 (human metapneumovirus, strain B1); assay: cell-based or functional assay
[8] = substrate: F protein of hPIV Type 3 (hPIV3 C243) (human parainfluenza virus type 3, strain C243); assay: cell-based or functional assay

Row | Molecule | CC50 at 1 day [1] | Mean (PFU/g lung) (RSV A2 virus strain [2]; BALB/c mice, tracheal nebulization 1 mg/kg QD for 5 days, lung collected 2 h after final administration on Day 4) | effect on viral titer in lung tissue (in words) (RSV A2 virus strain [2]; mice, tracheal nebulization once daily for 5 days) | Nucleic acid load RT-qPCR detection results Log10 mean (copy number/gram of lung tissue) (RSV A2 virus strain [3]; tracheal nebulization 1 mg/kg QD for 5 days, lung collected 2 h after final administration on Day 4) | effect on viral titer in lung tissue (in words) (RSV A2 virus strain [3]; tracheal nebulization once daily for 5 days) | Kd [4] | IC50/nM, Cell fusion inhibition activity (plaque reduction, RSV A long strain, HEp-2 cells) [5] | EC50 (nM), plaque reduction, hMPV A2, Vero cells [6] | EC50 (nM), plaque reduction, hMPV B1, Vero cells [7] | EC50 (nM), plaque reduction, hPIV3 C243, LLC-MK2 cells [8]
1 | CC[C@H](C)[C@H](NC(=O)[C@H](CCCCN)NC(=O)[C@H](CCCCN)NC(=O)[C@H](CC(C)C)NC(=O)[C@H](CO)NC(=O)[C@H](CCC(=O)O)NC(=O)[C@H](CCC(=O)O)NC(=O)[C@@H](NC(=O)[C@H](CCCCN)NC(=O)[C@H](CCCCN)NC(=O)[C@H](CC(N)=O)NC(=O)[C@@H](NC(=O)[C@H](CCC(=O)O)NC(=O)[C@H](CCC(=O)O)NC(=O)[C@@H](NC(=O)[C@H](CCCCN)NC(=O)[C@H](CCCCN)NC(=O)[C@H](CC(=O)O)NC(=O)[C@H](Cc1ccccc1)NC(=O)[C@H](CCC(=O)O)NC(=O)C(CC(=O)O)NC(C)=O)[C@@H](C)CC)C(C)C)[C@@H](C)CC)C(=O)N[C@@H](CCC(=O)O)C(=O)N[C@@H](CCC(=O)O)C(=O)N[C@@H](CO)C(=O)N[C@@H](CC(=O)O)C(=O)N[C@@H](CCCCN)C(=O)N[C@@H](CCCCN)C(=O)N[C@@H](CC(C)C)C(=O)N[C@@H](CCC(=O)O)C(=O)N[C@@H](CCC(=O)O)C(=O)N[C@H](C(=O)N[C@@H](CC(N)=O)C(=O)N[C@@H](CCC(=O)O)C(=O)N[C@@H](C)C(=O)N[C@@H](C)C(=O)N[C@@H](C)C(=O)N[C@@H](CCCCN)C(=O)N[C@@H](CCCCNC(=O)CCC(=O)O[C@H]1CC[C@@]2(C)C(=CC[C@H]3[C@@H]4CC[C@H]([C@H](C)CCCC(C)C)[C@@]4(C)CC[C@@H]32)C1)C(N)=O)C(C)C (some centres unmarked) [Compound 14] (Ac-[ξD]EFDKKIEEVNKKIEESLKKIEESDKKLEEVNEAAAKK(Succinyl(4-O-cholesteryl))-NH2) | 9600 nM | 4820 PFU/g lung | significantly reduce the viral titer in lung tissue | 7.68 Log10 copy number/gram of lung | significantly reduce the viral titer in lung tissue |  |  |  |  | 
2 | B1 |  |  |  |  |  | 1020 nM | 14.9 nM | 94.8 nM | 51.3 nM | 48.2 nM
3 | B2 |  |  |  |  |  | 5720 nM | 18.3 nM | 16.8 nM | 8.01 nM | 16.1 nM
4 | B3 |  |  |  |  |  | 24500 nM | 14.6 nM | 128 nM | 16.6 nM | 26.4 nM
5 | B4 |  |  |  |  |  | 485 nM | 11.8 nM | 26.1 nM | 10.1 nM | 18.9 nM
6 | B5 |  |  |  |  |  | 492 nM | 14.8 nM | 11.7 nM | 9.46 nM | 71.1 nM
7 | B6 |  |  |  |  |  | 2270 nM | 11.7 nM | 13.8 nM | 7.47 nM | 22.2 nM
